Patent publication US8877476B2, “Soluble and stable human 5-lipoxygenase” (Board of Supervisors of Louisiana State University and …, priority 2010, dated 2014)
Substitutions are numbered along the chain they refer to. Names and notes keep the numbering of the source.

B1: Sol-5-LOX: more soluble form of human 5-LOX, SEQ ID NO: 2 (W13E, F14H, Δ40-44GS, W75G, L76S, C240A, C561A) (protein)
chain: MGSSHHHHHHSSGLVPRGSHMPSYTVTVATGSQEHAGTDDYIYLSLVGSAGCSEKHLLDKGSFERGAVDSYDVTVDEELGEIQLVRIEKRKYGSNDDWYLKYITLKTPHGDYIEFPCYRWITGDVEVVLRDGRAKLARDDQIHILKQHRRKELETRQKQYRWMEWNPGFPLSIDAKCHKDLPRDIQFDSEKGVDFVLNYSKAMENLFINRFMHMFQSSWNDFADFEKIFVKISNTISERVMNHWQEDLMFGYQFLNGANPVLIRRCTELPEKLPVTTEMVECSLERQLSLEQEVQQGNIFIVDFELLDGIDANKTDPCTLQFLAAPICLLYKNLANKIVPIAIQLNQIPGDENPIFLPSDAKYDWLLAKIWVRSSDFHVHQTITHLLRTHLVSEVFGIAMYRQLPAVHPIFKLLVAHVRFTIAINTKAREQLICECGLFDKANATGGGGHVQMVQRAMKDLTYASLCFPEAIKARGMESKEDIPYYFYRDDGLLVWEAIRTFTAEVVDIYYEGDQVVEEDPELQDFVNDVYVYGMRGRKSSGFPKSVKSREQLSEYLTVVIFTASAQHAAVNFGQYDWASWIPNAPPTMRAPPPTAKGVVTIEQIVDTLPDRGRSCWHLGAVWALSQFQENELFLGMYPEEHFIEKPVKEAMARFRKNLEAIVSVIAERNKKKQLPYYYLSPDRIPNSVAI
modifications: Δ40-44 replaced by GS; Sol-5-LOX
B2: S663D-Stable-5-LOX: Stable-5-LOX with Serine 663 replaced with Aspartic acid, SEQ ID NO: 4, mimics phosphorylated state (protein)
chain: B1 chain with K671E, K672N, K673L, S681D
modifications: S663D-Stable-5-LOX

Key:
[1] = Concentration to which the protein can be concentrated; assay type: physicochemical
[2] = Product assays (HPLC of arachidonic acid oxygenation products); assay type: biochemical
Description: Incubations were conducted in 0.5 ml 0.1 M Tris pH 7.5 containing 150 mM NaCl and 1 mM CaCl2 with 1-20 μg/ml 5-LOX enzyme. The reaction was initiated by addition of arachidonic acid (10-100 μM) added in 1-5 μl ethanol and monitored by UV spectroscopy until completion of reaction (5-10 min). Products were extracted by adjusting the solution to ˜pH 4 by addition of 50 μl 1 M KH2PO4 plus 5 μl 1N HCl and vigorous mixing with two volumes of dichloromethane. After a brief centrifugation to clear the phases, the lower organic layer was collected, washed twice with 0.5 ml water, taken to dryness under a stream of nitrogen, and then dissolved in a small volume of methanol for storage at −20° C. prior to HPLC. Reversed-phase HPLC was carried out using Agilent 1100 series equipment with a Waters C18 Symmetry column (25×0.46 cm), a solvent of acetonitrile/water/glacial acetic acid (60:40:0.01, v/v/v) or methanol/water/glacial acetic acid (80:20:0.01, v/v/v), a flow rate of 1 ml/min, with UV monitoring at 205 nm, 220 nm, 235 nm and 270 nm. The chirality of the product was confirmed as 5S: Mobile phase hexane/methanol 100:2; 1 ml/min; Chiralpak AD column (4.6×250 mm). The HETEs were made into the methyl esters before chiral analysis using ethereal diazomethane.

[3] = Enzyme half-life at 37° C. by monitoring enzyme activity (ΔA238) over 24 hrs; assay type: biochemical
[4] = Melting curves (thermal denaturation, SYPRO Orange fluorescence); assay type: physicochemical; conditions: fluorescence vs temperature, four independent experiments in triplicate
Description: Melting temperature assays were performed according to the protocol described by Ericsson et al. (31) Protein was diluted to 1 μM in a final volume of 150 μl 5×SYPRO® Orange protein stain (Invitrogen, Carlsbad, Calif.). Samples were aliquoted in triplicate volumes of 40 μl in a 96-well reaction plate. The plate was subjected to a linear thermal shift from 5 to 94° C. in one degree increments in a 7500 Fast Real-Time PCR System (Applied Biosystems, Branchburg, N.J.). The SYBR Green cutoff filter was used for fluorescence detection of denaturing protein-SYPRO® Orange binding. The resulting data were exported to Sigma Plot 9, and the sigmoidal part of the curve was averaged for each triplicate. The averaged curves were subsequently fit to a four parameter sigmoidal equation. The Tm values reported are the results of four independent experiments, each in triplicate, with multiple protein preparations.

Molecule | can be concentrated to [1] [mg/mL] | products formed from arachidonic acid ([2]; HPLC chromatogram, FIG. 6D / FIG. 8) | half-life at 37° C. [3] [h] | Tm (with s.d.) [4] | change of product specificity by the S663D amino acid change ([2]; Serine 663 replaced with Aspartic acid, method not described)
B1 | 2 | produces both the intermediate 5S-HPETE and the product leukotriene A4 | ~7 | 56.6(±0.4) ° C. | –
B2 | – | – | – | – | converted the enzyme from a 5-LOX to a 15-LOX
